Literature values in US7208138B2, “Contrast enhancement agent for magnetic resonance imaging” (Duke University, priority 2001, dated 2007).

Experiments:
[1] = fraction of the relaxivity of free gadolinium ion
[2] = time to clearance of one half from the bloodstream
TG = target: T1, TG (Homo sapiens, UniProt P21980)
T1 sequence (P21980 1-687): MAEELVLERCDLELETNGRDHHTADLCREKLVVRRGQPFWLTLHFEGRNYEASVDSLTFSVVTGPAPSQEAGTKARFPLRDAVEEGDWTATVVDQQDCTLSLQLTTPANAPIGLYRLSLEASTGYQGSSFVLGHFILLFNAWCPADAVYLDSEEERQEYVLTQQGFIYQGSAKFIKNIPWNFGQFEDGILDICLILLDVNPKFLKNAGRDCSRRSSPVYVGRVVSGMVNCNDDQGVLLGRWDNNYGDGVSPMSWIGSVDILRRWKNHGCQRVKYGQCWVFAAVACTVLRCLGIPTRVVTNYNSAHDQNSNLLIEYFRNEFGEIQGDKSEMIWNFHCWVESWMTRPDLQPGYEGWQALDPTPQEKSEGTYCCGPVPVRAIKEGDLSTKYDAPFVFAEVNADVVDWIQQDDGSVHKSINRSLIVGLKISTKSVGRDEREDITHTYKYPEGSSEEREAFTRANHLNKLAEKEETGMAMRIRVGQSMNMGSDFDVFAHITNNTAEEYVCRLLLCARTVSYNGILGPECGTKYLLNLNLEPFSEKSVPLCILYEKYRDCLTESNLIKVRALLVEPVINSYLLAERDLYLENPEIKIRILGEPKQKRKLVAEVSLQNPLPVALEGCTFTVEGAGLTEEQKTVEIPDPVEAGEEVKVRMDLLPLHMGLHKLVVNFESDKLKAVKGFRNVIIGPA

fXIIIa = target: T2, fXIIIa (Homo sapiens, UniProt P00488)
T2 sequence (P00488 39-732 limits assumed): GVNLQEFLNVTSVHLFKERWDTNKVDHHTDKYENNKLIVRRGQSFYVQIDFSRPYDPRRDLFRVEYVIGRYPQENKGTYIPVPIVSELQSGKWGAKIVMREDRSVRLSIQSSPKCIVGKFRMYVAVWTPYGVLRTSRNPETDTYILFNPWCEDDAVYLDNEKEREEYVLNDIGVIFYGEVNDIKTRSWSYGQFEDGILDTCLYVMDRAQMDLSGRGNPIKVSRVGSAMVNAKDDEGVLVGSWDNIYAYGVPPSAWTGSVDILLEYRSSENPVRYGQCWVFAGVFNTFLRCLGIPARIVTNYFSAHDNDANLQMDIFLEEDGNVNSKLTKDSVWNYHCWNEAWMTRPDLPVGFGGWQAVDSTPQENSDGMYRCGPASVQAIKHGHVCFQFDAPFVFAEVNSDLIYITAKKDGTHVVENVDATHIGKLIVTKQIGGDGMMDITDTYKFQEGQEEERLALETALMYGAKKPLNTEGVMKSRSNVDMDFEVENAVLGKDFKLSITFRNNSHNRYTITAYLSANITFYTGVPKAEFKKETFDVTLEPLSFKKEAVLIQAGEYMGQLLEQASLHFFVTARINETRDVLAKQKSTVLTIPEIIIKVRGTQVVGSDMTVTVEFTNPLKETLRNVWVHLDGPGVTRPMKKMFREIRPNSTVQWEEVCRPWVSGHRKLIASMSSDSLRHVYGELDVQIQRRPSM

Row | Compound | relaxivity of the complex relative to free gadolinium ion [1] | cleared from the bloodstream (½) [2] [min] | TG crosslinking / recognition (TG) | fXIIIa crosslinking / recognition (fXIIIa)
1 | O=C([O-])CN(CCN(CC(=O)[O-])CC(=O)[O-])CCN(CC(=O)[O-])CC(=O)[O-].[Gd+3] [Gd-DTPA] | about one-half | 20 | – | –
2 | SEQ ID NO: 2: peptide of amino acid sequence NQEQVSP, the TG and fXIIIa crosslinking motif (listed as Homo sapiens) | – | – | recognized | recognized
3 | SEQ ID NO: 3: peptide NGEQVSP, glycine at position 2; control peptide in crosslinking assays (listed as Homo sapiens) | – | – | inert | inert
